{
  "source": "paper PMC3900686",
  "about": "“Mechanisms of the Scaffold Subunit in Facilitating Protein Phosphatase 2A Methylation” (PLoS ONE, 2014)",
  "key": {"[1]": {"target": "T1, PP2A catalytic Cα-subunit (free PP2Ac) ( (\"mammalian PP2Ac\"), UniProt P67775 1-309)", "T1 construct": "PP2A Cα-subunit (PP2Ac); negligible methylation as purified; also called C-subunit; full-length PP2Ac", "test": "ITC; 200 µM LCMT-1 (pre-loaded with SAH) titrated to 20 µM PP2A; 25°C; 20 mM Tris pH 7.5, 50 mM NaCl, 50 µM MnCl2; VP-ITC", "settings": "both partners purified"}, "[2]": {"target": "PP2A core enzyme with the A-subunit mutant A_R183E ( |  (\"mammalian …, UniProt P30153 1-589; P67775 1-309, A_R183E)", "test": "cell-based or functional assay"}, "[3]": {"target": "PP2A core enzyme with the A-subunit mutant A_R258E ( |  (\"mammalian …, UniProt P30153 1-589; P67775 1-309, A_R258E)", "test": "cell-based or functional assay"}, "[4]": {"target": "T1, PP2A catalytic Cα-subunit (free PP2Ac)", "test": "pull-down; core enzymes assembled on the maltose resin with the immobilized MBP-tagged truncated A-subunits", "settings": "both partners purified"}, "[5]": {"target": "T2, PP2A scaffold Aα-subunit (full-length A-subunit) (UniProt P30153 1-589)", "T2 construct": "PP2A scaffold Aα-subunit, 15 HEAT repeats; called the full-length A-subunit; the methods say that residues 9–54 were retained in all constructs, and the FRET fusion is Aα (9–589); The true N-terminal limit may be residue 9; also called scaffold subunit", "test": "assembly and purification of the core enzyme; stable PP2A core enzyme assembled from A-subunit and PP2Ac and purified as previously described [17]", "settings": "both partners purified"}, "[6]": {"target": "the molecule itself", "test": "SEC; gel filtration chromatography of wild type and mutant A-subunits"}},
  "data": [
    {"binder": "PP2A-specific leucine carboxyl methyltransferase 1 (LCMT-1) (enzyme, human, UniProt Q9UIC8 1-334, looked up, human LCMT-1, cloned into pET15b; For ITC it was pre-loaded with SAH (0.5 mM, 10 min, 37°C)) MATRQRESSITSCCSTSSCDADDEGVRGTCEDASLCKRFAVSIGYWHDPYIQHFVRLSKERKAPEINRGYFARVHGVSQLIKAFLRKTECHCQIVNLGAGMDTTFWRLKDEDLLPSKYFEVDFPMIVTRKLHSIKCKPPLSSPILELHSEDTLQMDGHILDSKRYAVIGADLRDLSELEEKLKKCNMNTQLPTLLIAECVLVYMTPEQSANLLKWAANSFERAMFINYEQVNMGDRFGQIMIENLRRRQCDLAGVETCKSLESQKERLLSNGWETASAVDMMELYNRLPRAEVSRIESLEFLDEMELLEQLMRHYCLCWATKGGNELGLKEITY", "values": [
      {"measurement": "fold reduction of binding affinity against the core enzyme", "setting": "[1]", "result": "~4", "unit": "fold"},
      {"measurement": "stoichiometry N", "setting": "[1]", "result": "< 1"},
      {"measurement": "Km of methylation of the PP2A core enzyme by LCMT-1 (3H-SAM), fold increase against the wild-type core enzyme", "setting": "[2]", "result": 1.5, "unit": "fold"},
      {"measurement": "Km of methylation of the PP2A core enzyme by LCMT-1 (3H-SAM), fold increase against the wild-type core enzyme", "setting": "[3]", "result": 2, "unit": "fold"}
    ]},
    {"binder": "A-subunit mutant missing HEAT repeats 2–10 (AΔHR2–10, mini-A) (domain or fragment, UniProt P30153 9-589, looked up, the FRET fusion is Aα (9–589); source: E. coli DH5α, MBP-tagged, immobilised on maltose resin) SLYPIAVLIDELRNEDVQLRLNSIKKLSTIALALGVERTRSELLPFIVELAEDAKWRVRLAIIEYMPLLAGQLGVEYFDEKLNSLCMAWLVDHVYAIREAATSNLKKLVEKFGKEWAHATIIPKVLAMSGDPNYLHRMTTLFCINVLSEVCGQDITTKHMLPTVLRMAGDPVANVRFNVAKSLQKIGPILDNSTLQSEVKPILEKLTQDQDVDVKYFAQEALTVLSLA", "values": [
      {"measurement": "binding result", "setting": "[4]", "result": "binds"}
    ]},
    {"binder": "PP2Ac with internal deletion of five residues of the PP2Ac-tail (PP2AcΔ294–298) (enzyme, UniProt P67775 1-309, looked up, Probably made as the wild-type Cα-subunit (insect cells, His8 tag cleaved); also called shortened PP2Ac) MDEKVFTKELDQWIEQLNECKQLSESQVKSLCEKAKEILTKESNVQEVRCPVTVCGDVHGQFHDLMELFRIGGKSPDTNYLFMGDYVDRGYYSVETVTLLVALKVRYRERITILRGNHESRQITQVYGFYDECLRKYGNANVWKYFTDLFDYLPLTALVDGQIFCLHGGLSPSIDTLDHIRALDRLQEVPHEGPMCDLLWSDPDDRGGWGISPRGAGYTFGQDISETFNHANGLTLVSRAHQLVMEGYNWCHDRNVVTIFSAPNYCYRCGNQAAIMELDDTLKYSFLQFDPAPHVTRRTPDYFL", "values": [
      {"measurement": "binding result", "setting": "[5]", "result": "binds"}
    ]},
    {"binder": "A-subunit mutant A_D61A/E62K/E100A/E101K (natural protein, UniProt P30153 1-589, looked up, PP2A scaffold Aα-subunit, multiple mutant D61A/E62K/E100A/E101K; Probably made as the wild-type A-subunit) MAAADGDDSLYPIAVLIDELRNEDVQLRLNSIKKLSTIALALGVERTRSELLPFLTDTIYAKDEVLLALAEQLGTFTTLVGGPEYVHCLLPPLESLATVAKTVVRDKAVESLRAISHEHSPSDLEAHFVPLVKRLAGGDWFTSRTSACGLFSVCYPRVSSAVKAELRQYFRNLCSDDTPMVRRAAASKLGEFAKVLELDNVKSEIIPMFSNLASDEQDSVRLLAVEACVNIAQLLPQEDLEALVMPTLRQAAEDKSWRVRYMVADKFTELQKAVGPEITKTDLVPAFQNLMKDCEAEVRAAASHKVKEFCENLSADCRENVIMSQILPCIKELVSDANQHVKSALASVIMGLSPILGKDNTIEHLLPLFLAQLKDECPEVRLNIISNLDCVNEVIGIRQLSQSLLPAIVELAEDAKWRVRLAIIEYMPLLAGQLGVEFFDEKLNSLCMAWLVDHVYAIREAATSNLKKLVEKFGKEWAHATIIPKVLAMSGDPNYLHRMTTLFCINVLSEVCGQDITTKHMLPTVLRMAGDPVANVRFNVAKSLQKIGPILDNSTLQSEVKPILEKLTQDQDVDVKYFAQEALTVLSLA", "values": [
      {"measurement": "binding result", "setting": "[6]", "result": "binds"}
    ]},
    {"binder": "A-subunit mutant missing HEAT repeats 2–8 (AΔHR2–8) (domain or fragment, UniProt P30153 9-589, looked up, the FRET fusion is Aα (9–589); source: E. coli DH5α, MBP-tagged, immobilised on maltose resin) SLYPIAVLIDELRNEDVQLRLNSIKKLSTIALALGVERTRSELLPFIKELVSDANQHVKSALASVIMGLSPILGKDNTIEHLLPLFLAQLKDECPEVRLNIISNLDCVNEVIGIRQLSQSLLPAIVELAEDAKWRVRLAIIEYMPLLAGQLGVEFFDEKLNSLCMAWLVDHVYAIREAATSNLKKLVEKFGKEWAHATIIPKVLAMSGDPNYLHRMTTLFCINVLSEVCGQDITTKHMLPTVLRMAGDPVANVRFNVAKSLQKIGPILDNSTLQSEVKPILEKLTQDQDVDVKYFAQEALTVLSLA", "values": [
      {"measurement": "binding result", "setting": "[4]", "result": "binds"}
    ]}
  ]
}
